These results are taken from US20030138894A1 (Human Genome Sciences, published 2003).

Positions of bridges follow the written chain, without caps; N, C: chain ends. No end group written: not given here.

B1: ACE-2 binding polypeptide YEDCIGHALFCMTF (peptide)
peptide: YEDCIGHALFCMTF
modifications: not fully specified (N-terminus, C-terminus, bridges); cysteine pairing not given here
B2: ACE-2 binding polypeptide FSPCKALRHSPWWVCPSG (peptide)
peptide: FSPCKALRHSPWWVCPSG
modifications: not fully specified (N-terminus, C-terminus, bridges); cysteine pairing not given here
B3: ACE-2 binding polypeptide DDHCEWASYWKWDLCLHD (peptide)
peptide: DDHCEWASYWKWDLCLHD
modifications: not fully specified (N-terminus, C-terminus, bridges); cysteine pairing not given here
B4: ACE-2 binding polypeptide YDNCLGLANLNFCFDF (peptide)
peptide: YDNCLGLANLNFCFDF
modifications: not fully specified (N-terminus, C-terminus, bridges); cysteine pairing not given here
B5: ACE-2 binding polypeptide EGNCFLIGPWCFEF (peptide)
peptide: EGNCFLIGPWCFEF
modifications: not fully specified (N-terminus, C-terminus, bridges); cysteine pairing not given here
B6: ACE-2 binding polypeptide DQNCFAMYCFEF (peptide)
peptide: DQNCFAMYCFEF
modifications: not fully specified (N-terminus, C-terminus, bridges); cysteine pairing not given here

T1 sequence (Q9BYF1 18-740 limits assumed): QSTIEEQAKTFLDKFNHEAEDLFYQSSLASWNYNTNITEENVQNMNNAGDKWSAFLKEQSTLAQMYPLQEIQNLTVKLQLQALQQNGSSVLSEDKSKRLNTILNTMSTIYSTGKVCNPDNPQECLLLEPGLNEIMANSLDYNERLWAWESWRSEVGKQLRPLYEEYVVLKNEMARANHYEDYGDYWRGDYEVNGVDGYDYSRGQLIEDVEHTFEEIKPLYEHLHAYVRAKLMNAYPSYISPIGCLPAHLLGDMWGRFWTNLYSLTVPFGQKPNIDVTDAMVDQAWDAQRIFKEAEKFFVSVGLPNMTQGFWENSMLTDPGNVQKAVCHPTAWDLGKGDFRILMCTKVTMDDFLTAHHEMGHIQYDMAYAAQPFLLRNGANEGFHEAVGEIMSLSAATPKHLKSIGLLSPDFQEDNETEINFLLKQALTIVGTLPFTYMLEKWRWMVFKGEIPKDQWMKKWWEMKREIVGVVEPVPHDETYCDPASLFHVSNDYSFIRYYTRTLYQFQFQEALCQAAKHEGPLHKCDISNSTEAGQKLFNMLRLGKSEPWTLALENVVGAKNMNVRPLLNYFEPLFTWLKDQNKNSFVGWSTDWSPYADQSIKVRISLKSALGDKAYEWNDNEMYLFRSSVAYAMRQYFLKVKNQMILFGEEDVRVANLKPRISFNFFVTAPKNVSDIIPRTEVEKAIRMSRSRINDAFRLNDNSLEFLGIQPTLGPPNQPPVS

This test addresses T1, FLAG-tagged ACE-2 target (human, UniProt Q9BYF1 18-740).
T1 construct: range 1-740; obtained from Human Genome Sciences, Inc; also called FLAG-ACE-2; tagged human ACE-2; not shown: FLAG tag
The test can be described thus: phage ELISA on FLAG-ACE-2. On the procedure:
Phage enriched from the third round of selection were screened by ELISA for strong ACE-2 binders. Immulon 2 96-well plates (Dynatech) were coated with streptavidin for 1 hour at 37° C. and subsequently coated with anti-FLAG antibody for 1 hour at room temperature. Half of the plates were further coated with FLAG-ACE-2 as the target plates, and the other half of the plates were coated with FLAG peptide as background plates. The amount of each protein or peptide coated was 100 ng per well. The coated plates were then incubated for 1 hour at room temperature with 1:2 diluted overnight phage cultures that were made by inoculating phage from individual plaques into bacterial host cells. After being washed 7 times with PBST, the plates were incubated with HRP-conjugated anti-M13 antibody (Pharmacia) for 1 hour at room temperature, washed 5 times, developed with TMB peroxidase substrate solution (Kirkegaad & Perry Laboratories, Gaithersburg, Md.), and read at 630 nm on an ELISA plate reader.
On the technique in general: In an ELISA, binding on a coated surface is turned into a signal by an enzyme label.
Regarding B1, the binding result was “binds”.
As to B2, the binding result is reported as “binds”.
As for YSGCADMYMFCIDF (not fully specified (bridges); cysteine pairing not given here) [ACE-2 binding polypeptide YSGCADMYMFCIDF], the binding result was “binds”.
As for B3, the binding result was “binds”.
Turning to YFACTNNDSYLFCLDF (not fully specified (bridges); cysteine pairing not given here) [ACE-2 binding polypeptide YFACTNNDSYLFCLDF], the binding result is “binds”.
For DDVCYSLIMADYCLDF (not fully specified (bridges); cysteine pairing not given here) [ACE-2 binding polypeptide DDVCYSLIMADYCLDF], the binding result is reported as “binds”.
With B4, the binding result is recorded as “binds”.
As for B5, the binding result was “binds”.
Regarding DDKCFGWAHFCFDF (not fully specified (bridges); cysteine pairing not given here) [ACE-2 binding polypeptide DDKCFGWAHFCFDF], the binding result is listed as “binds”.
In the case of SDYCVGNNAVTYCFDF (not fully specified (bridges); cysteine pairing not given here) [ACE-2 binding polypeptide SDYCVGNNAVTYCFDF], the binding result was “binds”.
For the molecule YNFCMLIGERDYCLDF (not fully specified (bridges); cysteine pairing not given here) [ACE-2 binding polypeptide YNFCMLIGERDYCLDF], the binding result is “binds”.
Turning to DFGCNAMFCVEF (not fully specified (bridges); cysteine pairing not given here) [ACE-2 binding polypeptide DFGCNAMFCVEF], the binding result is “binds”.
Consider DNLCMSGGSFDYCFDF (not fully specified (bridges); cysteine pairing not given here) [ACE-2 binding polypeptide DNLCMSGGSFDYCFDF], for which the binding result is on record as “binds”.
Turning to DDDCMMLPLTMFCFDF (not fully specified (bridges); cysteine pairing not given here) [ACE-2 binding polypeptide DDDCMMLPLTMFCFDF], the binding result is “binds”.
In the case of NHHCLEFSSFEYCFDF (not fully specified (bridges); cysteine pairing not given here) [ACE-2 binding polypeptide NHHCLEFSSFEYCFDF], the binding result is given as “binds”.
Turning to NWNCLGTNELQFCLDF (not fully specified (bridges); cysteine pairing not given here) [ACE-2 binding polypeptide NWNCLGTNELQFCLDF], the binding result is recorded as “binds”.
In the case of WEDCLWIGMMCVEF (not fully specified (bridges); cysteine pairing not given here) [ACE-2 binding polypeptide WEDCLWIGMMCVEF], the binding result is “binds”.
As for NPECGALFCMEF (not fully specified (bridges); cysteine pairing not given here) [ACE-2 binding polypeptide NPECGALFCMEF], the binding result is recorded as “binds”.
For the molecule B6, the binding result is given as “binds”.
On to HLDCYNLVDNMFCFDF (not fully specified (bridges); cysteine pairing not given here) [ACE-2 binding polypeptide HLDCYNLVDNMFCFDF], for which the binding result is reported as “binds”.
Take HIECEEWGYWCIEM (not fully specified (bridges); cysteine pairing not given here) [ACE-2 binding polypeptide HIECEEWGYWCIEM]: the binding result is reported as “binds”.
On to DDYCFNISSYSYCFDF (not fully specified (bridges); cysteine pairing not given here) [ACE-2 binding polypeptide DDYCFNISSYSYCFDF], for which the binding result is given as “binds”.
Consider PNQCGVDIWALFCVDF (not fully specified (bridges); cysteine pairing not given here) [ACE-2 binding polypeptide PNQCGVDIWALFCVDF], for which the binding result is on record as “binds”.
In the case of NDYCTVFTGALFCLDF (disulfide 4-13 (inferred); not fully specified (N-terminus, C-terminus)) [ACE-2 binding polypeptide NDYCTVFTGALFCLDF], the binding result is “binds”.
As to NLDCIYLQNHSYCFDF (not fully specified (bridges); cysteine pairing not given here) [ACE-2 binding polypeptide NLDCIYLQNHSYCFDF], the binding result is recorded as “binds”.
Consider GGQCGTSYLFCIDF (not fully specified (bridges); cysteine pairing not given here) [ACE-2 binding polypeptide GGQCGTSYLFCIDF], for which the binding result is “binds”.
On to LHDCFIYADYEYCFDF (not fully specified (bridges); cysteine pairing not given here) [ACE-2 binding polypeptide LHDCFIYADYEYCFDF], for which the binding result was “binds”.
Turning to KFECMPSSLFCVDF (not fully specified (bridges); cysteine pairing not given here) [ACE-2 binding polypeptide KFECMPSSLFCVDF], the binding result is reported as “binds”.
